# In patent US20140018288A1, “X-DING-CD4 Peptide” (priority 2012, published 2014):
# Like-named read-outs stand apart in the source and are kept apart here.
# B1: MADINGGGATLPQPLYQTSGVLTAGFAPYIGVGSGKGKLAFLNNDYSQFGTGTKNVHWAGSDSKLTSTELSTYASTKQAAWGKLIQVPSVATSVAIPFNKAGSNAVDLSVDQLCGVFSGRITTWNQ (protein, listed as Homo sapiens)
# chain: MADINGGGATLPQPLYQTSGVLTAGFAPYIGVGSGKGKLAFLNNDYSQFGTGTKNVHWAGSDSKLTSTELSTYASTKQAAWGKLIQVPSVATSVAIPFNKAGSNAVDLSVDQLCGVFSGRITTWNQ
# Legend:
# [1] = tested on: NL4-3 HIV-1 isolate; assay: MAGI assay of HIV-1 replication in MAGI-CCR-5 cells; type: cell-based; conditions: MAGI-CCR-5 cells, NL4-3 HIV-1
# Description: The antiviral activity of rX-DING-CD4^pep was tested by MAGI assay. […] Subsequently, cells were exposed to rX-DING-CD4^pep treatment in the presence of DMEM supplemented with 5% fetal bovine serum, antibiotics, glutamate and […] DEAE dextran. […] Replication of virus was evaluated forty eight hours later after fixation of cells with 1% formaldehyde and 0.2% glutaraldehyde in PBS. Expression of β-galactosidase was visualized by 50 min exposure to X-GAL (5-bromo-4-chloro-3-indolyl-β-D-galactopyranoside), 0.4 mg/ml 2 mM MgCl2, 4 mM potassium ferricyanide at 37° C. After enumeration of the infected (blue) cells, all cells were lysed and subjected to the protein assay (Bio-Rad). All data were adjusted by total protein concentration and anti-viral activity was calculated as percent inhibition. The infected untreated and uninfected cells served as (+) and (−) controls to calculate 100% virus infectivity. The inhibition values for HIV-1 replication were calculated based on the formula [(R1−R0)×100/Z]-100; where R1 is the value obtained from cells infected by HIV-1 and treated with specific dilution of X-DING-CD4^pep and R^0 is the basal value obtained from the uninfected and untreated cells; Z is the absolute HIV-1 replication value calculated as Z═Rmax−R0, where Rmax is the value representing 100% of HIV-1 replication in X-DING-CD4^pep untreated cells.
# [2] = Acute toxicity after intraperitoneal injection in mice; type: in vivo, mice (B6/SJL); conditions: 1-50 μg rX-DING-CD4^pep or 50 μg nX-DING-CD4, 7 days
# Description: In the animal tests, eight-week old wild-type mice (B6/SJL) with both genders in each test group were injected intraperitoneally with 1-50 μg of rX-DING-CD4^pep or 50 μg nX-DING-CD4. The nX-DING-CD4 refers to the native form of X-DING-CD4 protein that was purified through IXC chromatography from the extracellular compartment of HIV-1 resistant T-cells. The rX-DING-CD4^pep refers to therapeutic X-DING-CD4 peptide that was expressed in E. coli and purified through Ni-affinity column. Toxicity was assessed by obvious symptoms including diarrhea, ruffled fur, abnormal gait, or loss of more than 10% weight. Animals were weighted before injection and then observed every hour for the first 10 hours after injection; then animals were weighted on 1, 3, 4 and 7 days after X-DING-CD4 administration. […] In its highest administered dose (50 μg—corresponding to 2 μg/G) we exceeded therapeutic dose blocking 95% of HIV promoter activity (by RSA assays) and 90% virus replication (by MAGI assays) (See FIGS. 2 & 3 in Example 2).
# [3] = tested on: HIV-1 LTR promoter; assay: Rapid Suppression Assay (RSA), PMA-induced HIV-1 LTR-driven luciferase in 1G5 cells; type: cell-based; conditions: RSA; for IC50: PMA 5 ng/ml, read-out: IC50, HIV-1 LTR promoter inhibition
# Description: We applied the cell based Rapid Suppression Assay (RSA) for testing X-DING-CD4-induced inhibition of HIV-1 LTR promoter (Lesner et al., 2004; Lesner et al., 2005). Briefly, 1 G5 cells (obtained through the NIH AIDS Research and Reagent Program, Division of AIDS, NIAID, NIH) that are stably transfected with an inducible luciferase gene driven by HIV-1 LTR (Aguilar-Cordova et al., 1994) were washed in PBS, resuspended in hybridoma medium to concentration of 5×10^6cells/ml. For purpose of generating control titration curves, 100 μl aliquots of 1G5 cells were mixed with 100 μl cell culture medium either supplemented with various amount of rX-DING-CD4^pep (SEQ ID No: 1) or no rX-DING-CD4^pep, and incubated for three hours at 37° C. Subsequently, all cells were induced with phorbol 12-myristate 13-acetate (PMA) at a concentration of 5 ng/ml. Two control tubes containing 1G5 cells without rX-DING-CD4^pep treatment were resuspended in hybridoma medium with or without PMA. Three hours later cells were collected by centrifugation and lysed in the same tubes using Reporter Lysis buffer (Promega). The expression levels of luciferase protein in the lysates were determined according to the manufacturer's protocol. The X-DING-CD4^pep inhibition values were established based on the formula: [(LUC1-LUC0)×100/Z]−100; where LUC1 is the value obtained from cells induced by PMA and treated with a specific dilution of X-DING-CD4^pep; and LUC0 is the basal value obtained from the uninduced and untreated cells; Z is the absolute luciferase induction by PMA calculated as Z=LUCmax-LUCO3 where LUCmax is the value of 100% luciferase expression in PMA induced X-DING-CD4^pep untreated cells.
# One aspect of the present invention is related to X-DING-CD4 peptide derivatives. Here we obtained 15 derivatives SED ID NOS: 1-15 by recombination or in vitro synthesis. We tested the biological activity of some these derivatives by rapid suppression assay (RSA). In XD-4M, the third amino acid glycine in the native X-DING-CD4 peptide was substituted with the polar amino acid glutamine. In XD-7, the two amino acids, cysteine and valine, replaced the three amino acids, glycine, serine and aspartic acid, in the native X-DING-CD4 peptide. In XD-12 and XD-12sh, the 69th amino acid glutamic acid in the native X-DING-CD4 peptide was methylated. In XD-9, the 69th amino acid glutamic acid in the native X-DING-CD4 peptide was substituted with the amino acid glutamine. The RSA procedure was similar to that described in Example 2. The inhibitory values are plotted in FIG. 5.
# We performed the rapid suppression assay (RSA) which tests directly the inhibition of HIV-1 transcription (similar to the procedure described in Example 2), the MAGI assay which tests the inhibition of HIV-1 replication in a single cycle infection (similar to the procedure described in Example 2), and the HIV-1 infection inhibition assay in human PBLs.
# [4] = 1G5 cells, listed as rX-DING-CD4
molecule,measurement,setting,value
B1,IC50,[1],18.9 nM
same,IC80,[1],151 nM
same,"obvious symptoms of toxicity (diarrhea, ruffled fur, abnormal gait)",[2],Neither of rX-DING-CD4^pep treatment nor nX-DING-CD4 treatment caused any obvious symptoms
same,concentration achieving inhibition of 90% HIV-1 LTR transcription,[3],115.1 nM
same,"IC95, HIV-1 LTR promoter inhibition, mass concentration",[3]; 1G5 cells,1.52 µg/mL
same,"IC95, inhibitory dose blocking 95% transcription events",[3]; 1G5 cells,about 115.1 nM
same,IC50,[3]; [4],8.2 nM
same,IC50,[3]; 1G5 cells,~8.18 nM
same,"IC95, HIV-1 LTR promoter inhibition, mass concentration",[3]; [4],(1.514 μg/ml)
same,"IC50, HIV-1 LTR promoter inhibition, mass concentration",[3]; Table 1,(0.107 ug/ml)
same,"IC95, HIV-1 LTR promoter inhibition",[3]; Table 1,116 nM
